In patent publication US9017951B2, “Anti-FcRH5 antibodies and immunoconjugates and methods of use” (Genentech, Inc., priority 2009, dated 2015):

Key:
human FcRH5 = target: T1, human FcRH5 (Homo sapiens, UniProt Q96RD9); experiment: Affinity determination (Scatchard analysis), cells expressing human FcRH5; type: binding; settings: FACS and Scatchard analysis
T1 construct: expressed in transfected cells; host or cells: OPM2 multiple myeloma line per text
T1 sequence (Q96RD9 16-977 Y267H/G418D/V466I/L733P/S890P): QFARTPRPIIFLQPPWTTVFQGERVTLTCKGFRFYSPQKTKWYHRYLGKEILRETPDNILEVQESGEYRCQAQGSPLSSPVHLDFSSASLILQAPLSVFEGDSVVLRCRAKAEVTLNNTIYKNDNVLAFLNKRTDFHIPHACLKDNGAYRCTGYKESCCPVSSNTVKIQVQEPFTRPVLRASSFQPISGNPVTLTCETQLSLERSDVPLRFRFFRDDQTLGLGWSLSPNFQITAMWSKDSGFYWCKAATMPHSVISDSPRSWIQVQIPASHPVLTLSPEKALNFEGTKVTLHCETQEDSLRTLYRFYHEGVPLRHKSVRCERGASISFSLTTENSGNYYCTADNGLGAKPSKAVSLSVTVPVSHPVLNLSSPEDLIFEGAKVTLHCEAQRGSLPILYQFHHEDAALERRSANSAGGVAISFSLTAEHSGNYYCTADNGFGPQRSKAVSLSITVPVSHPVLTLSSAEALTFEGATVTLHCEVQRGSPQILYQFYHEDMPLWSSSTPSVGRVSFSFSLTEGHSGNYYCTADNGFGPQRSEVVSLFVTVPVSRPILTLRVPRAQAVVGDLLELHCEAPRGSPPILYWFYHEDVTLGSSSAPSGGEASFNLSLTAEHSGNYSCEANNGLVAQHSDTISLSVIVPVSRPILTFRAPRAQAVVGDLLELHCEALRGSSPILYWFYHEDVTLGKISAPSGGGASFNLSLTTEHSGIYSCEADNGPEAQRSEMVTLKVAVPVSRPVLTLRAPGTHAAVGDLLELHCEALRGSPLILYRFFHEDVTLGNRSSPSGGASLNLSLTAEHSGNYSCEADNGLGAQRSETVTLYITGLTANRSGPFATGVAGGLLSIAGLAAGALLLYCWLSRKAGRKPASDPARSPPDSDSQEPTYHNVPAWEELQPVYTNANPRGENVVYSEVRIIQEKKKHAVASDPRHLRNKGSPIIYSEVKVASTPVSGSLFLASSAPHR
Protocol: To further determine binding of the FcRH5 murine antibodies and IgG clones, binding of iodinated IgG variants to OPM2 cells expressing human FcRH5 and SVT2 cells expressing cynomologous FcRH5, Scatchard analysis was performed (Table 9A).
After a four hour incubation at 4° C., cells were washed and cell pellet counts were read by a gamma counter (1470 WIZARD Automatic Gamma Counter; Perkin Elmer, Walthem, Mass.). All points were done in triplicate and counted for 10 minutes. The average CPM was used for Kd calculation using the New Ligand (Genentech, South San Francisco, Calif.) program.

cynomolgus FcRH5 = experiment: Cyno X-reactivity (FACS) on stable transfected cells; type: binding; settings: SVT2 cells stably expressing cynoFcRH5; 1.0, 0.1 or 0.01 ug Ab per million cells
Chain of cynomolgus FcRH5 (as listed by the source): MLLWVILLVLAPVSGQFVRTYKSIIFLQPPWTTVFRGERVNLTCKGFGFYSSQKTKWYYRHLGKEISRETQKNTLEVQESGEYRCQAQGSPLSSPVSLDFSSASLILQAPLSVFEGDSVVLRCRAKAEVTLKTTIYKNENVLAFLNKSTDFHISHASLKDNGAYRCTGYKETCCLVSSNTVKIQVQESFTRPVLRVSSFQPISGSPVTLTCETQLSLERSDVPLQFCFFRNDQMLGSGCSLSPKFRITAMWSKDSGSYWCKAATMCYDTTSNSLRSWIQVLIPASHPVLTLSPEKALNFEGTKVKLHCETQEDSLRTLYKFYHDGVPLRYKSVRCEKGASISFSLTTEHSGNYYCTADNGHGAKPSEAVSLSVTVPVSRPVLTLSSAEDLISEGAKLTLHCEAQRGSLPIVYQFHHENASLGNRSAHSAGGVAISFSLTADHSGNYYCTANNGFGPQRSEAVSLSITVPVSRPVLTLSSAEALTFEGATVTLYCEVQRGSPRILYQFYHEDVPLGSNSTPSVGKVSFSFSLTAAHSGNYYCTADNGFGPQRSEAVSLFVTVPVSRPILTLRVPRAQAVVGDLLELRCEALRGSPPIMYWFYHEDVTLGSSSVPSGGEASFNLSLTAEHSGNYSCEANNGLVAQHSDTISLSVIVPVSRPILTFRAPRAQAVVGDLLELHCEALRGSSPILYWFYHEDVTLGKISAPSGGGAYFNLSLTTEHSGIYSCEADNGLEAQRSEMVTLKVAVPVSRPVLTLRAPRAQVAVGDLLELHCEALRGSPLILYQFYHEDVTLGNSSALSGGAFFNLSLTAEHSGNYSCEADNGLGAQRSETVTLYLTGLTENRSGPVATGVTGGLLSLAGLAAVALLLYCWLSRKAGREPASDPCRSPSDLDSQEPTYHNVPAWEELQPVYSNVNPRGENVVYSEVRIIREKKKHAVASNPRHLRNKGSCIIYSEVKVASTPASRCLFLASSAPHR
Protocol: For additional FACS analysis of FcRH5 antibodies, 1.0 μg, 0.1 μg or 0.01 μg of antibody was titrated per million cells of BJAB cells stably expressing huFcRH5 and SVT2 cells stably expressing cynoFcRH5. Briefly, approximately 10^6 cells in 100 μl were incubated with varying amounts (1.0 ug, 01. ug or 0.01 ug) of murine Ab (‘mu1H4, mu4D10, mu6H1, mu7D11, mu9E2, mu10A8, mu140F5, or mu13G9) per million cells of BJAB cells stably expressing huFcRH5 and SVT2 cells stably expressing cynoFcRH5. Incubation with 1.0 ug/10^6 cells of the appropriate Mu IgG isotype control was used as a negative control. PE conjugated Rat anti-MuIgG1 or Rat anti-MuIgG2a+b was used as the secondary detection antibody.

Molecule	Binding to cells expressing FcRH5 compared with the chimera (human FcRH5)	Cross reactivity with cynomolgus FcRH5 by FACS analysis (cynomolgus FcRH5)
hu13G9.1a: humanized 13G9 version 1; VL SEQ ID NO: 19, VH SEQ ID NO: 21 (antibody, V domains shown) VH: EVQLVQSGGGLVQPGGSLRLSCAASGYTFTNYGMNWVRQAPGKGLEWVGWVNTYTGEPTYTDDFKGRFTFSVDTSKSTVYLQMNSLRAEDTAVYYCARRSIPYYYAMDYWGQGTLVTVS VL: DIQMTQSPSSLSASVGDRVTITCKASQNVGSNVAWYQQKPGKAPKALIYSASYRYSGVPSRFSGSGSGTDFTLTISSLQPEDFATYYCQQYKTWTFGQGTKVEIKR	essentially equivalent to the chimera	–
13G9: murine monoclonal antibody binding human FcRH5; variable chains SEQ ID NO: 18 and 20 (antibody, listed as Mus sp., V domains shown) VL: DIVMTQSQKIMSTSVGDRVNVTCKASQNVGSNVAWYHQKPGQSPKALIYSASYRYSGVPDRFTGSGSGTDFTLTISNVQSEDLAEYFCQQYKTWTFGGGTKLEIKR VH: EVQLVQSGPELKKPGETVKISCKASGYTFTNYGMNWVKQAPGKGLKWMGWVNTYTGEPTYTDDFKGRFAFSVETSASTVFLQINNLKNEDTATYFCARRSIPYYYAMDYWGQGTSLT	–	cross react with cynomolgus FcRH5
